Reference: patent US20100150939A1

Legend:
[1] = target: recombinant human ADAM10 (amino residues 18-672, Cat. No 936-AD) (human) (UniProt O14672)
[2] = target: 6 activating periplasm out of 27 periplasm tested for ADAM10
[3] = target: 5 inhibiting periplasm out of 27 periplasm tested for ADAM10
[4] = target: 9 activating periplasm out of 31 periplasm tested for ADAM9
[5] = target: 7 inhibiting periplasm out of 31 periplasm tested for ADAM9

| Binder | Percent activity compared to no periplasm (50x excess) [1] | further results |
| --- | --- | --- |
| Nanobody 39-C8 (VHH) VHH: EMQLVESGGGLVQTGGSLRLSCAASGRTFTSYCVGWWRQAPGKERDVVAAITRGSNSTDYVDSVKGRFTISRDNAENTVYLQMNSLKPEDTAVYYCAADINCRNLYTGRPEYWGQGTQVTVSS | 194 percent |  |
| recombinant human ADAM10 (amino residues 18-672, Cat. No 936-AD) (protein) GGQYGNPLNKYIRHYEGLSYNVDSLHQKHQRAKRAVSHEDQFLRLDFHAHGRHFNLRMKRDTSLFSDEFKVETSNKVLDYDTSHIYTGHIYGEEGSFSHGSVIDGRFEGFIQTRGGTFYVEPAERYIKDRTLPFHSVIYHEDDINYPHKYGPQGGCADHSVFERMRKYQMTGVEEVTQIPQEEHAANGPELLRKKRTTSAEKNTCQLYIQTDHLFFKYYGTREAVIAQISSHVKAIDTIYQTTDFSGIRNISFMVKRIRINTTADEKDPTNPFRFPNIGVEKFLELNSEQNHDDYCLAYVFTDRDFDDGVLGLAWVGAPSGSSGGICEKSKLYSDGKKKSLNTGIITVQNYGSHVPPKVSHITFAHEVGHNFGSPHDSGTECTPGESKNLGQKENGNYIMYARATSGDKLNNNKFSLCSIRNISQVLEKKRNNCFVESGQPICGNGMVEQGEECDCGYSDQCKDECCFDANQPEGRKCKLKPGKQCSPSQGPCCTAQCAFKSKSEKCRDDSDCAREGICNGFTALCPASDPKPNFTDCNRHTQVCINGQCAGSICEKYGLEECTCASSDGKDDKELCHVCCMKKMDPSTCASTGSVQWSRHFSGRTITLQPGSPCNDFRGYCDVFMRCRLVDADGPLARLKKAIFSPELYENIAE |  | ADAM protease assay, fluorogenic peptide substrate ES003, periplasms containing Nanobodies [2]: 6 activated significantly (more than 200% initial activity); ADAM protease assay, fluorogenic peptide substrate ES003, periplasms containing Nanobodies [3]: 5 inhibited significantly (less than 40% residual activity) |
| Nanobody 33-A1 (VHH) VHH: EVQLVESGGGLVQAGGSLRLSCAASGDTFSRYSMGWFRQAPGKEREFVVYITRSGRTTYYQDSVKGRFTISRDNAKNTVYLQMNSLKPEDTAVYYCAAMRSGNVRYPERYDYWGQGTQVTVSS | 86.5 percent |  |
| Nanobody 39-B1 (VHH) VHH: EVQLVESGGGLVQAGGSLRLSCARSGRISNINIMAWYRQAPGKTRDMVAAIIGDSTNYADSVKGRFTISRDNAKNTVYLHMNRLKPEDTGVYYCKISGVDWGQGTQVTVSS | 67.1 percent |  |
| Nanobody 39-D1 (VHH) VHH: KVQLVESGGGLVQAGGSLRLSCAASGNIFINNAVGWYRQAPGKQREMVAAMLSGGSTNYADSVKGRFTISRDNAKNTVYLQMNSLKPEDTAVYYCNVQVNGTWARWGQGTQVTVSS | 84.6 percent |  |
| Nanobody 39-F1 (VHH) VHH: EVQLVESGGGLVQAGGSLRLSCAASERIFSTYFMGWFRQAPGKEREFVAFISGNGGSTDYADSVKGRFAISRDNVKNTLYLQMSSLKPDDTAVYYCAVAGRQIKSTWGYWGQGTQVTVSS | 144 percent |  |
| Nanobody 32-E1, E6, 39-A2 (VHH) VHH: EVQLVESGGGLVQAGGSLRLSCAASERIFSTYFMGWFRQAPGKEREFVAFISGNGGSTDYADSVKGRFAISRDNVKNTLYLQMSSLKPDDTAVYYCAVAGRQIKSTWDYWGQGTQVTVSS | 163 percent |  |
| recombinant human ADAM9 (amino residues 1-697, R&D Systems, Cat. No. 939-AD) (protein) AARPGFQQTSHLSSYEIITPWRLTRERREAPRPYSKQVSYVIQAEGKEHIIHLERNKDLLPEDFVVYTYNKEGTLITDHPNIQNHCHYRGYVEGVHNSSIALSDCFGLRGLLHLENASYGIEPLQNSSHFEHIIYRMDDVYKEPLKCGVSNKDIEKETAKDEEEEPPSMTQLLRRRRAVLPQTRYVELFIVVDKERYDMMGRNQTAVREEMILLANYLDSMYIMLNIRIVLVGLEIWTNGNLINIVGGAGDVLGNFVQWREKFLITRRRHDSAQLVLKKGFGGTAGMAFVGTVCSRSHAGGINVFGQITVETFASIVAHELGHNLGMNHDDGRDCSCGAKSCIMNSGASGSRNFSSCSAEDFEKLTLNKGGNCLLNIPKPDEAYSAPSCGNKLVDAGEECDCGTPKECELDPCCEGSTCKLKSFAECAYGDCCKDCRFLPGGTLCRGKTSECDVPEYCNGSSQFCQPDVFIQNGYPCQNNKAYCYNGMCQYYDAQCQVIFGSKAKAAPKDCFIEVNSKGDRFGNCGFSGNEYKKCATGNALCGKLQCENVQEIPVFGIVPAIIQTPSRGTKCWGVDFQLGSDVPDPGMVNEGTKCGAGKICRNFQCVDASVLNYDCDVQKKCHGHGVCNSNKNCHCENGWAPPNCETKGYGGSVDSGPTYNEMNTALRD |  | ADAM protease assay, fluorogenic peptide substrate ES003, periplasms containing Nanobodies [4]: 9 were significantly activating; ADAM protease assay, fluorogenic peptide substrate ES003, periplasms containing Nanobodies [5]: 7 showed significant inhibition |
| Nanobody 39-D8, E8 (VHH) VHH: EVQLVESGGGLVRARGSLRLSCAASGGTFSRYAMGWFRQAPGKEREFVAAISRSGGNTYFTESVKGRFTMSRDNAKNTVYLQMNSLKPEDTAVYYCAARSAAVYTTTVYLVDFEYNYWGQGTQVTVSS | 76.4 percent |  |
| Nanobody 33-D1 (VHH) VHH: EVQLVESGGGLVQAGDSLRLSCAATGRTFSSDAMGWFRQAPGKERAFVAGINYNSVYRYYTDSVEGRFTISRDNAKNTVYLQMNSLKPEDTAVYYCAADSDYYSLIGGRPVNYWGQGTQVTVSS | 85.6 percent |  |
